Measured values: paper PMC8689070

How the values were obtained:
[1] = tested on: CovR-P (SP-TyK-phosphorylated) (Streptococcus pyogenes (M1T1 5448?; locus numbering MGAS5005)); test: EMSA
[2] = tested on: CovR (non-phosphorylated) (Streptococcus pyogenes (M1T1 5448?; locus numbering MGAS5005)); test: EMSA

For PcovR, the binding signal (fold vs non-phosphorylated CovR) [1] was 4 and the binding signal (fold of CovR-P binding) [2] was 0.25.
